Paper PMC5651247, “Factor H-Related (FHR)-1 and FHR-2 Form Homo- and Heterodimers, while FHR-5 Circulates Only As Homodimer in Human Plasma” (Frontiers in Immunology, 2017)

B1: Recombinant human FHR-5 (rFHR-5), C-terminal 6×His (natural protein, UniProt Q9BXR6 19-569, looked up)
chain: EGTLCDFPKIHHGFLYDEEDYNPFSQVPTGEVFYYSCEYNFVSPSKSFWTRITCTEEGWSPTPKCLRMCSFPFVKNGHSESSGLIHLEGDTVQIICNTGYSLQNNEKNISCVERGWSTPPICSFTKGECHVPILEANVDAQPKKESYKVGDVLKFSCRKNLIRVGSDSVQCYQFGWSPNFPTCKGQVRSCGPPPQLSNGEVKEIRKEEYGHNEVVEYDCNPNFIINGPKKIQCVDGEWTTLPTCVEQVKTCGYIPELEYGYVQPSVPPYQHGVSVEVNCRNEYAMIGNNMITCINGIWTELPMCVATHQLKRCKIAGVNIKTLLKLSGKEFNHNSRIRYRCSDIFRYRHSVCINGKWNPEVDCTEKREQFCPPPPQIPNAQNMTTTVNYQDGEKVAVLCKENYLLPEAKEIVCKDGRWQSLPRCVESTAYCGPPPSINNGDTTSFPLSVYPPGSTVTYRCQSFYKLQGSVTVTCRNKQWSEPPRCLDPCVVSEENMNKNNIQLKWRNDGKLYAKTGDAVEFQCKFPHKAMISSPPFRAICQEGKFEYPICE
modifications: DyLight 488 or DyLight 594, 3 to 4 labels per monomer (the labelled copies of the FRET assays; unlabelled where added in excess)
notes: Complement factor H-related protein 5 (FHR-5), human; Labelled and unlabelled copies of the same construct are kept as one molecule; also called rFHR-5^488; rFHR-5^594; not shown: 6×His, C-terminal, kept
B2: Recombinant human FHR-1 (rFHR-1), CFHR1*A allotype, C-terminal 6×His (natural protein, UniProt Q03591 19-330, looked up)
chain: EATFCDFPKINHGILYDEEKYKPFSQVPTGEVFYYSCEYNFVSPSKSFWTRITCTEEGWSPTPKCLRLCFFPFVENGHSESSGQTHLEGDTVQIICNTGYRLQNNENNISCVERGWSTPPKCRSTDTSCVNPPTVQNAHILSRQMSKYPSGERVRYECRSPYEMFGDEEVMCLNGNWTEPPQCKDSTGKCGPPPPIDNGDITSFPLSVYAPASSVEYQCQNLYQLEGNKRITCRNGQWSEPPKCLHPCVISREIMENYNIALRWTAKQKLYLRTGESAEFVCKRGYRLSSRSHTLRTTCWDGKLEYPTCAKR
notes: also called native rFHR-1; unlabeled rFHR-1; not shown: 6×His, C-terminal, kept
B3: Recombinant human FHR-2 (rFHR-2), C-terminal 6×His (natural protein, UniProt P36980 19-270, looked up)
chain: EAMFCDFPKINHGILYDEEKYKPFSQVPTGEVFYYSCEYNFVSPSKSFWTRITCAEEGWSPTPKCLRLCFFPFVENGHSESSGQTHLEGDTVQIICNTGYRLQNNENNISCVERGWSTPPKCRSTISAEKCGPPPPIDNGDITSFLLSVYAPGSSVEYQCQNLYQLEGNNQITCRNGQWSEPPKCLDPCVISQEIMEKYNIKLKWTNQQKLYSRTGDIVEFVCKSGYHPTKSHSFRAMCQNGKLVYPSCEEK
modifications: DyLight 488 or DyLight 594, 3 to 4 labels per monomer (the labelled copies of the FRET assays; unlabelled where added in excess and in the ELISA)
notes: Complement factor H-related protein 2 (FHR-2), human; Labelled and unlabelled copies of the same construct are kept as one molecule; also called rFHR-2^488; rFHR-2^594; not shown: 6×His, C-terminal, kept

Key:
[1] = molecular target: the molecule itself; experiment: FRET or BRET; monomer exchange: equimolar DyLight 488- and 594-labelled protein mixed and followed in time; 37°C, 200 ng/mL in degassed PBS with 1 mg/mL IVIg; first-order exponential fit
[2] = molecular target: the molecule itself; experiment: FRET or BRET; monomer exchange: pre-equilibrated 488- and 594-labelled protein, then a >5 times molar excess of unlabelled rFHR added; loss of FRET signal followed; 37°C, PBS with 1 mg/mL IVIg; first-order exponential fit
[3] = molecular target: B3; experiment: as above; details: both partners purified

Binder | dissociation half-life [1] | observed rate constant k of monomer exchange [2] | observed rate constant k of monomer exchange [3]
B1 | < 30 min | 0.0012 s⁻¹ | 
B2 |  |  | 0.00053 s⁻¹
B3 | < 30 min | 0.0004 s⁻¹ | 
